Literature values as cited in PMC8439649.

Biological target: mTORC1 (Homo sapiens) (UniProt P42345)

In the case of DEPTOR PDZ (from UniProt Q8TB45), the Kd is listed as 7 µM.
